Measured values: patent publication US5451506A, “Oncostatin M and novel compositions having anti-neoplastic activity” (Oncogen Limited Partnership, priority 1993, dated 1995)

Legend:
[1] = molecular target: T1, Oncostatin M receptor on A375 or A549 cells (Homo sapiens, UniProt P40189+Q99650); test: Specificity of Oncostatin M receptor: competition for binding of 125I-Oncostatin M; details: 125I-Oncostatin M 30-50 ng/ml
T1 construct: endogenous in cells; host or cells: A375 or A549 cells (intact monolayers)
T1 sequence (Q99650 28-979): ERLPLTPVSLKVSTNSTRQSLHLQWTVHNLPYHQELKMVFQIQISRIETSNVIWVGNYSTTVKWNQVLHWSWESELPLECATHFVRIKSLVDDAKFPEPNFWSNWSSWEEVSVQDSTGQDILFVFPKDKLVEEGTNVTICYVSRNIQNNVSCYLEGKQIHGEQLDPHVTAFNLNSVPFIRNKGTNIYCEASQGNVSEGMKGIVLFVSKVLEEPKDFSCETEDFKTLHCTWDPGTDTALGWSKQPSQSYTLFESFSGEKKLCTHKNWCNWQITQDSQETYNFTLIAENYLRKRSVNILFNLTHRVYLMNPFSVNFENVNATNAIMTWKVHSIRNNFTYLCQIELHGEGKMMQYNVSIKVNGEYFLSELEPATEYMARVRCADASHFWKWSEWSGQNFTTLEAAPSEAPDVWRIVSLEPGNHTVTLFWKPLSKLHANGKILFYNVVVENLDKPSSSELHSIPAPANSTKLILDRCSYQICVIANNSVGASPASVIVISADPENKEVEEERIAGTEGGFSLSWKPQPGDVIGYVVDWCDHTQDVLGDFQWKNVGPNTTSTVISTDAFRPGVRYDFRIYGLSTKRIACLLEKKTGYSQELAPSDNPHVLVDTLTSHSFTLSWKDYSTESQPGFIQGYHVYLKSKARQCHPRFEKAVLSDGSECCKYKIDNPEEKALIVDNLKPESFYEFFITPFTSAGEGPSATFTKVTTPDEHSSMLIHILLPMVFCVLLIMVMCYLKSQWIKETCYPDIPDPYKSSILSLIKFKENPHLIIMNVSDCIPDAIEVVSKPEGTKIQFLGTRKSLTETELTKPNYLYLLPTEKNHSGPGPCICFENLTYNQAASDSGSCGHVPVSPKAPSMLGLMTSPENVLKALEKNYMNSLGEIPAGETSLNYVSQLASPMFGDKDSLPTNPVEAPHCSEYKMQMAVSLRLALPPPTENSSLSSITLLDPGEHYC
T1 sequence (P40189 23-918): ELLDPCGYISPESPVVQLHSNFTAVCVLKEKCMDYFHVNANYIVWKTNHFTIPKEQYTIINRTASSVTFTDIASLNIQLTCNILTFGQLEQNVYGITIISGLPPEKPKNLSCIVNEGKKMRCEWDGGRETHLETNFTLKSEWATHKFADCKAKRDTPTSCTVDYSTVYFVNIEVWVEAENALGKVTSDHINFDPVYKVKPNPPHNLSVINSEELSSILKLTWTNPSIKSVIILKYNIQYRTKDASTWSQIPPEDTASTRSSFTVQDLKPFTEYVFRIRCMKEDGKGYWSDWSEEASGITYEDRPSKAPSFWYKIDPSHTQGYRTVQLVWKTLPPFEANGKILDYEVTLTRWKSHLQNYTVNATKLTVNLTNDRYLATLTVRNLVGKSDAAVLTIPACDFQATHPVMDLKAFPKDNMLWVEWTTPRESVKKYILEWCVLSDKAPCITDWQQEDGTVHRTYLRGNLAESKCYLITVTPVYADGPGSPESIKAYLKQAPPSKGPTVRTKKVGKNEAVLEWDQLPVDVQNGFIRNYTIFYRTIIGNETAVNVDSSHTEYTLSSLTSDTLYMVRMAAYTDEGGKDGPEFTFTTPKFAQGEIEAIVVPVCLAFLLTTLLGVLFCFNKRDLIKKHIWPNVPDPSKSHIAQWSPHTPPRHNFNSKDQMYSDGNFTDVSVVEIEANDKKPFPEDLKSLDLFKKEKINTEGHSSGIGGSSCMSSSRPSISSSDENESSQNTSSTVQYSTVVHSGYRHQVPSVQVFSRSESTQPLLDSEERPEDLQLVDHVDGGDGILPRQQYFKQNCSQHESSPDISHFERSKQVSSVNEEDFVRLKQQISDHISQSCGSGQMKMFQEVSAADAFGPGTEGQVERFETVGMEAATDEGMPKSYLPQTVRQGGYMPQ
Description: The cell line of interest was plated in 48-well plates at a density of 2×10^5 cells/well and maintained at 37° C. for 16-24 hours before initiation of the assay. Cell monolayers were then washed once with Binding buffer (Linsley et al., Biochemistry (1986) 25:2978-2986). To measure total binding, ^125 I-Oncostatin M was added at concentrations ranging from 0.5-100 ng/ml. To measure non-specific binding, unlabeled Oncostatin M was added simultaneously with the ^125 I-Oncostatin M to replicate plates at a concentration 20- to 100-fold higher than the concentration of ^125 I-Oncostatin M. Binding was allowed to proceed for 2-5 hours at 23°, then the monolayers were washed four times with Binding Buffer, cell-bound radioactivity was solubilized with 1N NaOH and was counted in a gamma counter. Specific binding was calculated by subtracting the non-specific binding from total binding. The dissociation constant (Kd) and binding capacity was determined by Scatchard analysis (Scatchard, Ann. N.Y. Acad. Sci. (1949) 51:660).
The specificity of the Oncostatin M receptor was determined by evaluating the ability of several other polypeptide growth factors to compete for binding of ^125 I-Oncostatin M (at 30-50 ng/ml) to A375 or A549 cells.

A375 cells [2] = test: Growth inhibition assay (A375 proliferation; synergy tests); type: cell-based, human
Description: A375 melanoma cells (4×10^3 cells/50 μl), Mv1Lu mink lung epithelial cells (3.5×10^3 cells/50 μl), or other cell line of interest at an appropriate cell density were subcultured for four hours on flat-bottomed 96-well tissue culture plates (Costar 3596, Cambridge, Mass.) in growth medium comprising Dulbecco's modified Eagle's medium (DMEM), supplemented with 10% heat-in-activated fetal bovine serum, and P/S. Test samples to be assayed for growth inhibition were diluted in growth medium and assayed in triplicate with 50 μl of the diluted sample added to each well. The cells were incubated for 72 hours at 37° C.
The growth inhibitory activity of highly purified TGF-β1, recombinant gamma-interferon (rIFN-γ), and Oncostatin M on A375 cells was determined, and possible synergy between TGF-β1 and Oncostatin M, TGF-β1 and rIFN-γ, and Oncostatin M and rIFN-γ in inhibiting A375 proliferation was tested. […] is expressed in units of Mv1Lu growth inhibitory activity, rIFN-γ in units of anti-viral activity and Oncostatin M in units of A375 growth inhibitory activity. Concentrations of TGF-β1 (1-30 U/ml) and Oncostatin M (0.5-10 U/ml) were chosen which caused either no or only minimal growth inhibition when tested individually.

A375 cells [3] = test: Growth inhibitory assay of recombinant Oncostatin M (crystal violet staining); type: cell-based, human; details: for Expression Level Units/ml (growth inhibitory activity): medium or extract of the expressing host cells (COS, CHO without methotrexate amplification, sf9); for Oncostatin M activity in medium of transfected COS cells: further test, one unit inhibits growth of A375 cells by 50%
Description: Biological activity of recombinant Oncostatin M was assessed by a growth inhibitory assay. Briefly, aliquots of extracts from transformed cells or medium from cell cultures were lyophilized with 20 μg bovine serum albumin as a carrier protein, resuspended in DMEM containing 10% fetal calf serum, and diluted serially before addition to 96-well cultures containing A375 cells (3.5×10^3 cells/well). […] Recombinant Oncostatin M was prepared using the following expression systems: E. coli, COS cells, CHO and insect cells (sf9).

fibroblast growth factor
Inhibitory activity towards binding of 125I-Oncostatin M ([1]; competitor 2.5 μg/ml): None of these showed significant inhibitory activity

Lys^3 bombesin
Inhibitory activity towards binding of 125I-Oncostatin M ([1]; competitor 50 μM): None of these showed significant inhibitory activity

formyl-M-L-F
Inhibitory activity towards binding of 125I-Oncostatin M ([1]; competitor 50 μM): None of these showed significant inhibitory activity

epidermal growth factor: polypeptide growth factor tested as competitor
Inhibitory activity towards binding of 125I-Oncostatin M ([1]; competitor 2.5 μg/ml): None of these showed significant inhibitory activity

Tyr^3 -bombesin
Inhibitory activity towards binding of 125I-Oncostatin M ([1]; competitor 1 μM): None of these showed significant inhibitory activity

TGF-β1: highly purified transforming growth factor-β1, units of Mv1Lu growth inhibitory activity
Inhibition of cell growth (A375 cells [2]; 3.4 U/ml, alone): 7%

interleukin 1-β: polypeptide growth factor tested as competitor
Inhibitory activity towards binding of 125I-Oncostatin M ([1]; competitor 50 μg/ml): None of these showed significant inhibitory activity

B1: ^125 I-Oncostatin M: Oncostatin M purified from TPA-treated U937 cells and radiolabeled with 125I by the iodogen method (protein, UniProt P13725 26-221, looked up)
Oncostatin-M: AAIGSCSKEYRVLLGQLQKQTDLMQDTSRLLDPYIRIQGLDVPKLREHCRERPGAFPSEETLRGLGRRGFLQTLNATLGCVLHRLADLEQRLPKAQDLERSGLNIEDLEKLQMARPNILGLRNNIYCMAQLLDNSDTAEPTKAGRGASQPPTPTPASDAFQRKLEGCRFLHGYHRFMHSVGRVFSKWGESPNRSRR
modifications: 125I label
notes: Oncostatin M purified from TPA-treated U937 cells and radiolabeled with 125I by the iodogen method
Original biological activity retained after iodination (A375 cells [2]; growth inhibition assays): approximately 85%

B2: pSV2βOncM/dhfr: Human Oncostatin M gene fused to βTGF leader sequence, with mouse dhfr gene (protein, UniProt P13725 26-221, looked up)
Oncostatin-M: B1 Oncostatin-M
modifications: expressed with TGF-beta leader sequence
Expression Level Units/ml (growth inhibitory activity) (A375 cells [3]): 10,000 GIA units/ml

B3: plasmid pH3M containing just the Oncostatin M sequences: pH3M containing Oncostatin M sequences without the fused βTGF leader sequence (protein, UniProt P13725 26-221, looked up)
Oncostatin-M: B1 Oncostatin-M
Oncostatin M activity in medium of transfected COS cells (A375 cells [3]): No activity was detected

B4: pAc/OncM: Oncostatin M expressed under control of the baculovirus polyhedrin gene regulators (protein, UniProt P13725 26-221, looked up)
Oncostatin-M: B1 Oncostatin-M
modifications: baculovirus-expressed
notes: Oncostatin M expressed under control of the baculovirus polyhedrin gene regulators
Expression Level Units/ml (growth inhibitory activity) (A375 cells [3]): 1,800 GIA units/ml

B5: pH3M/βOncM: Oncostatin M with βTGF leader sequence fused to the coding sequence, secreted into medium (protein, UniProt P13725 26-221, looked up)
Oncostatin-M: B1 Oncostatin-M
modifications: expressed with TGF-beta leader sequence
Sp. Act (A375 cells [3]; E. coli fusion proteins purified and refolded before testing): > 10,000 GIA units/ug protein
Oncostatin M activity in medium of transfected COS cells (A375 cells [3]): approximately 18,000 units/ml
Expression Level Units/ml (growth inhibitory activity) (A375 cells [3]): 56,000 GIA units/ml

B6: gamma interferon: gamma-interferon; recombinant in the synergy tests (protein, UniProt P01579 24-161, looked up)
Interferon gamma: QDPYVKEAENLKKYFNAGHSDVADNGTLFLGILKNWKEESDRKIMQSQIVSFYFKLFKNFKDDQSIQKSVETIKEDMNVKFFNSNKKKRDDFEKLTNYSVTDLNVQRKAIHELIQVMAELSPAAKTGKRKRSQMLFRG
Inhibitory activity towards binding of 125I-Oncostatin M ([1]; competitor 2.5 μg/ml): None of these showed significant inhibitory activity
